Measured values published in article PMC6532856, “A single dose of antibody-drug conjugate cures a stage 1 model of African trypanosomiasis” (PLoS Neglected Tropical Diseases, 2019).
Changes are numbered by the printed parent chain.

B1: Tb017 scFv (scFv, V domains shown)
VH: QVQLVQSGAEVKKPGSSVKVSCKASGGTFSSYAISWVRQAPGQGLEWMGGIIPIFGTANYAQKFQGRVTITADESTSTAYMELSSLRSEDTAVYYCARGWWYDLVFDYWGQGTLVTVSS
VL: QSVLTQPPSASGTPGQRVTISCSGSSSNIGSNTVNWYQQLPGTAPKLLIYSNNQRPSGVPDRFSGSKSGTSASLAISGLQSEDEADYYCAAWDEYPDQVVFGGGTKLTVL
notes: framework domains and CDR1-3 marked; source: phage produced from E. coli, phage-containing supernatant
B2: Tb085 scFv (scFv, V domains shown)
VH: B1 VH with G99E, W100G, Y102D, D103Y, L104G, V105W, Y108F
VL: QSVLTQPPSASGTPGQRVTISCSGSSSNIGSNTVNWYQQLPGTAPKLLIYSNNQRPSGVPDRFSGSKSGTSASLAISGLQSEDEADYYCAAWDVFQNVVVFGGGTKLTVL
notes: as for B1
B3: Tb086 scFv (scFv, V domains shown)
VH: B1 VH with W101Y, D103H, L104G, V105G, F106I
VL: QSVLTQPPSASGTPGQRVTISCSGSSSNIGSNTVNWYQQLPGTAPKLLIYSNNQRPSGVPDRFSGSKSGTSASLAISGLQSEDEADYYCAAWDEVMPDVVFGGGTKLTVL
notes: as for B1
B4: Tb073 scFv (scFv, V domains shown)
VH: B1 VH with W101Y, Y102D, D103M, L104G, V105D, Y108M
VL: QSVLTQPPSASGTPGQRVTISCSGSSSNIGSNTVNWYQQLPGTAPKLLIYSNNQRPSGVPDRFSGSKSGTSASLAISGLQSEDEADYYCAAWDWHHGHVVVFGGGTKLTVL
notes: as for B1
B5: Tb078 scFv (scFv, V domains shown)
VH: B1 VH with W101I, D103E, L104F, V105I, F106I, Y108A
VL: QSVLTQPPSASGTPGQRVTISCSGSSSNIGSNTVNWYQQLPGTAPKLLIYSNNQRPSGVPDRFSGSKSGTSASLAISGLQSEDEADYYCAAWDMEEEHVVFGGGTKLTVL
notes: as for B1
B6: Tb074 scFv (scFv, V domains shown)
VH: B1 VH with Y102H, D103E, L104P, V105G
VL: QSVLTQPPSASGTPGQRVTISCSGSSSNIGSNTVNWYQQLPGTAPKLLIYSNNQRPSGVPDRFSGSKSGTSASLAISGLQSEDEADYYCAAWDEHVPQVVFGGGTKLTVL
notes: as for B1

Target: T1, Recombinant HpHbR N-terminal domain (Trypanosoma brucei haptoglobin-haemoglobin receptor) (Trypanosoma brucei brucei, biotin (only for the protein coated on streptavidin-coated plates; site not stated))
T1 construct: also called HpHbR NTD; TbHpHbR NTD; source: recombinant, expressed as previously described [34]
Assay: ELISA; phage ELISA: 10 ug/ml TbHpHbR NTD coated onto Nunc Maxisorp plates or 5 ug/mL biotinylated protein on streptavidin-coated plates overnight at 4°C; blocked phage supernatants 1 hr at room temperature; bound phage detected with anti-M13 HRP antibody; BSA and streptavidin in parallel
Conditions: one partner purified

Binder | binding result
B1 | binds
B2 | binds
B3 | binds
B4 | binds
B5 | binds
B6 | binds
